Assay results from patent US20170298395A1, “AUTOTROPHIC HYDROGEN BACTERIA AND USES THEREOF” (Ohio State Innovation Foundation, priority 2011, published 2017).
Numbering of substitutions follows the chain as printed. Numbers in names are those of the source.

B1: A167V (protein)
chain: MSSFLRALTLRQLQIFVTVARHASFVRAAEELHLTQPAVSMQVKQLESVVGMALFERVKGQLTLTEPGDRLLHHASRILGEVKDAEEGLQAVKDVEQGSITIGLISTSKYFAPKLLAGFTALHPGVDLRIAEGNRETLLRLLQDNAIDLALMGRPPRELDAVSEPIVAHPHVLVASPRHPLHDAKGFDLQELRHETFLLREPGSGTRTVAEYMFRDHLFTPAKVITLGSNETIKQAVMAGMGISLLSLHTLGLELRTGEIGLLDVAGTPIERIWHVAHMSSKRLSPASESCRAYLLEHTAEFLGREYGGLMPGRRVA
B2: A117V (protein)
chain: B1 chain with A117V, V167A
B3: wt CbbR: wild-type CbbR (R. eutropha), 317 amino acids, SEQ ID NO: 1 (protein)
chain: B1 chain with V167A
B4: G125S/V265M (protein)
chain: B1 chain with G125S, V167A, V265M
B5: P221S/T299I (protein)
chain: B1 chain with V167A, P221S, T299I
B6: G125D (protein)
chain: B1 chain with G125D, V167A
B7: P269S/T299I (protein)
chain: B1 chain with V167A, P269S, T299I
B8: T232A (protein)
chain: B1 chain with V167A, T232A
B9: T232I (protein)
chain: B1 chain with V167A, T232I
B10: D148N (protein)
chain: B1 chain with D148N, V167A
B11: E87K (protein)
chain: B1 chain with E87K, V167A
B12: G205D/R283H (protein)
chain: B1 chain with V167A, G205D, R283H
B13: G205D/G118D (protein)
chain: B1 chain with G118D, V167A, G205D
B14: R272Q (protein)
chain: B1 chain with V167A, R272Q
B15: G98R (protein)
chain: B1 chain with G98R, V167A

Tested on: cbbL transcript
Type: cell-based, Ralstonia eutropha
Details: chemoautotrophic growth, 26 cycles of PCR

Molecule | increase in transcription over wild type CbbR (RT-PCR, FIG. 22) [fold]
B1 | 4.1

Same assay, conditions: chemoautotrophic growth, OD 0.2

Molecule | increase in cbb transcript over wild type CbbR (RT-PCR, FIG. 21) [fold]
B1 | 3.3
B2 | 1.9

Tested on: cbb promoter
Type: cell-based, Ralstonia eutropha
Details: Table 9, chemoautotrophic growth conditions

Molecule | Chemoautotrophic β-galactosidase activity
B3 | 3265 nmol/min/mg of protein
B4 | 6770 nmol/min/mg of protein
B1 | 7373 nmol/min/mg of protein
B5 | 4672 nmol/min/mg of protein
B2 | 6793 nmol/min/mg of protein
B6 | 6777 nmol/min/mg of protein
B7 | 3697 nmol/min/mg of protein
B8 | 4626 nmol/min/mg of protein
B9 | 5005 nmol/min/mg of protein
B10 | 5909 nmol/min/mg of protein

Same assay, conditions: Table 12, chemoautotrophic (induced) growth

Molecule | Chemoautotrophic β-galactosidase activity
B3 | 3265 nmol/min/mg of protein
B4 | 6770 nmol/min/mg of protein
B11 | 5515 nmol/min/mg of protein
B12 | 4480 nmol/min/mg of protein
B1 | 7373 nmol/min/mg of protein
B13 | 3939 nmol/min/mg of protein
B5 | 5312 nmol/min/mg of protein
B2 | 6793 nmol/min/mg of protein
B6 | 6777 nmol/min/mg of protein
B7 | 3879 nmol/min/mg of protein
B8 | 5269 nmol/min/mg of protein
B9 | 5005 nmol/min/mg of protein
B10 | 6442 nmol/min/mg of protein

Same assay, conditions: Table 12, chemoheterotrophic (repressed) growth

Molecule | Chemoheterotrophic β-galactosidase activity
B3 | 3 nmol/min/mg of protein
B4 | 53 nmol/min/mg of protein
B11 | 1597 nmol/min/mg of protein
B12 | 2311 nmol/min/mg of protein
B1 | 768 nmol/min/mg of protein
B13 | 1168 nmol/min/mg of protein
B5 | 655 nmol/min/mg of protein
B2 | 254 nmol/min/mg of protein
B6 | 108 nmol/min/mg of protein
B7 | 617 nmol/min/mg of protein
B8 | 212 nmol/min/mg of protein
B9 | 303 nmol/min/mg of protein
B10 | 343 nmol/min/mg of protein

Tested on: cbb promoter
Type: binding, R. eutropha
Details: in the presence of ATP

Molecule | effect of ATP on CbbR binding to cbb promoter probe (phosphorimage, in words)
B3 | enhancement of binding
B14 | modest enhancement of binding
B15 | no enhancement of binding

Same assay, conditions: in the presence of FBP

Molecule | effect of FBP on CbbR binding to cbb promoter probe (phosphorimage, in words)
B3 | no enhancement of binding

Same assay, conditions: in the presence of NADPH

Molecule | effect of NADPH on CbbR binding to cbb promoter probe (phosphorimage, in words)
B3 | modest enhancement of binding

Same assay, conditions: in the presence of Ru5P

Molecule | effect of Ru5P on CbbR binding to cbb promoter probe (phosphorimage, in words)
B3 | no enhancement of binding

Same assay, conditions: in the presence of RuBP

Molecule | effect of RuBP on CbbR binding to cbb promoter probe (phosphorimage, in words)
B3 | enhancement of binding
B14 | reduction of binding
B15 | modest enhancement of binding

Tested on: RubisCO
Type: cell-based, Ralstonia eutropha
Details: CA growth conditions

Molecule | level of RubisCO relative to wild-type CbbR [fold]
B1 | ~2.7
B2 | 2.2

Same assay, conditions: CH growth conditions

Molecule | level of RubisCO relative to wild-type CbbR [fold]
B11 | 330
B12 | 530

Same assay, conditions: Table 9, chemoautotrophic growth conditions

Molecule | Chemoautotrophic RubisCO activity
B3 | 90 nmol/min/mg of protein
B4 | 162 nmol/min/mg of protein
B1 | 173 nmol/min/mg of protein
B5 | 206 nmol/min/mg of protein
B2 | 171 nmol/min/mg of protein
B6 | 162 nmol/min/mg of protein
B7 | 118 nmol/min/mg of protein
B8 | 78 nmol/min/mg of protein
B9 | 106 nmol/min/mg of protein
B10 | 185 nmol/min/mg of protein

Same assay, conditions: Table 12, chemoautotrophic (induced) growth

Molecule | Chemoautotrophic RubisCO activity
B3 | 139 nmol/min/mg of protein
B4 | 259 nmol/min/mg of protein
B11 | 305 nmol/min/mg of protein
B12 | 115 nmol/min/mg of protein
B1 | 370 nmol/min/mg of protein
B13 | 148 nmol/min/mg of protein
B5 | 212 nmol/min/mg of protein
B2 | 314 nmol/min/mg of protein
B6 | 298 nmol/min/mg of protein
B7 | 158 nmol/min/mg of protein
B8 | 140 nmol/min/mg of protein
B9 | 123 nmol/min/mg of protein
B10 | 242 nmol/min/mg of protein

Same assay, conditions: Table 12, chemoheterotrophic (repressed) growth

Molecule | Chemoheterotrophic RubisCO activity
B3 | 0.1 nmol/min/mg of protein
B4 | 2 nmol/min/mg of protein
B11 | 33 nmol/min/mg of protein
B12 | 53 nmol/min/mg of protein
B1 | 15 nmol/min/mg of protein
B13 | 30 nmol/min/mg of protein
B5 | 16 nmol/min/mg of protein
B2 | 6 nmol/min/mg of protein
B6 | 3 nmol/min/mg of protein
B7 | 14 nmol/min/mg of protein
B8 | 4 nmol/min/mg of protein
B9 | 5 nmol/min/mg of protein
B10 | 8 nmol/min/mg of protein
